How the values were obtained:
JNKK2 = target: T1, JNKK2 (Homo sapiens, UniProt O14733, Q133P/Q94H); assay: GST pull-down, GST-Gadd45β beads with in vitro translated 35S-labeled JNKK2; assay type: binding
T1 construct: plasmids encoding full-length (FL) human ASK1, MEKK4, JNKK1, and JNKK2; made in house; host or cells: TNT coupled reticulocyte lysate (Promega), in vitro transcription/translation from pBS
T1 sequence (O14733 1-401 Q94H/Q133P limits assumed): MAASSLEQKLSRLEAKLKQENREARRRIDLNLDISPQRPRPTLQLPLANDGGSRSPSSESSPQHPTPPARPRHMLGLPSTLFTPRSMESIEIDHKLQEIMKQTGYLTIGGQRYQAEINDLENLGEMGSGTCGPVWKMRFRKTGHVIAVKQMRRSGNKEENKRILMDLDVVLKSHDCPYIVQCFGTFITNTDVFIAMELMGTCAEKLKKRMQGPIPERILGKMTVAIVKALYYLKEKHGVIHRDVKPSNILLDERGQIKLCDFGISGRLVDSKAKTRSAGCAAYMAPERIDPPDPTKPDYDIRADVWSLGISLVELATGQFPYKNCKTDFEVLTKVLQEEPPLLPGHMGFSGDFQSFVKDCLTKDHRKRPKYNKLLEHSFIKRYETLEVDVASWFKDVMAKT
Procedure: (§1) To confirm the above interactions, in vitro, GST pull-down experiments were performed. pBluescript (pBS) plasmids encoding full-length (FL) human ASK1, MEKK4, JNKK1, and JNKK2, or polypeptides derived from the amino- or carboxy-terminal portions of ASK1 (i.e. N-ASK1, spanning from amino acids 1 to 756, and C-ASK1, spanning from amino acids 648 to 1375) were transcribed and translated in vitro using the TNT coupled retyculocyte lysate system (Promega) in the presence of ^35S-methionine. 5 μl of each translation mix were incubated, in vitro, with sepharose-4B beads that had been coated with either purified glutathione-S-transferase (GST) polypeptides or GST-Gadd45β proteins. The latter proteins contained FL murine Gadd45β directly fused to GST. Binding assays were performed according to standard procedures, and ^35S-labeled proteins that bound to beads, as well as 2 μl of each in vitro translation mix (input), were then resolved by SDS polyacrylamide gel electrophoresis. Asterisks indicate the intact translated products. […] Thus, GST pull-down experiments confirmed the strong interaction between Gadd45β and JNKK2 observed in vivo, as well as the weaker interactions of Gadd45β with other kinases in the JNK pathway. These assays also uncovered a weak association between Gadd45β and JNKK1. […]

JNKK1 = target: T2, JNKK1 (Mus musculus, UniProt P47809); assay: GST pull-down, GST-Gadd45β beads with in vitro translated 35S-labeled JNKK1; assay type: binding, murine
T2 construct: plasmids encoding full-length (FL) human ASK1, MEKK4, JNKK1, and JNKK2; made in house; host or cells: TNT coupled reticulocyte lysate (Promega), in vitro transcription/translation from pBS
T2 sequence (P47809 2-397): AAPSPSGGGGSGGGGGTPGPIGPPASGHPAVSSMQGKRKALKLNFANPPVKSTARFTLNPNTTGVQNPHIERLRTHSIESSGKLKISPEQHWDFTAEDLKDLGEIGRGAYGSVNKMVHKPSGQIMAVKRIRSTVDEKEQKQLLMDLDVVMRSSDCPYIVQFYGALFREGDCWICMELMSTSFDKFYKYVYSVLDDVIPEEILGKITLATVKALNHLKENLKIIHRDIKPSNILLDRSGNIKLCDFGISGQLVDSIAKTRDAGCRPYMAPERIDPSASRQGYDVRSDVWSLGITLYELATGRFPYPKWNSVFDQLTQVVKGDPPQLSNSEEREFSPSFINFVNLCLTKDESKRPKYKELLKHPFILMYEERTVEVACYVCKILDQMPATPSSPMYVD
Procedure: as §1

MEKK4 = target: T3, MEKK4 (Mus musculus, UniProt O08648); assay: GST pull-down, GST-Gadd45β beads with in vitro translated 35S-labeled MEKK4; assay type: binding, murine
T3 construct: plasmids encoding full-length (FL) human ASK1, MEKK4, JNKK1, and JNKK2; made in house; host or cells: TNT coupled reticulocyte lysate (Promega), in vitro transcription/translation from pBS
T3 sequence (O08648 whole entry): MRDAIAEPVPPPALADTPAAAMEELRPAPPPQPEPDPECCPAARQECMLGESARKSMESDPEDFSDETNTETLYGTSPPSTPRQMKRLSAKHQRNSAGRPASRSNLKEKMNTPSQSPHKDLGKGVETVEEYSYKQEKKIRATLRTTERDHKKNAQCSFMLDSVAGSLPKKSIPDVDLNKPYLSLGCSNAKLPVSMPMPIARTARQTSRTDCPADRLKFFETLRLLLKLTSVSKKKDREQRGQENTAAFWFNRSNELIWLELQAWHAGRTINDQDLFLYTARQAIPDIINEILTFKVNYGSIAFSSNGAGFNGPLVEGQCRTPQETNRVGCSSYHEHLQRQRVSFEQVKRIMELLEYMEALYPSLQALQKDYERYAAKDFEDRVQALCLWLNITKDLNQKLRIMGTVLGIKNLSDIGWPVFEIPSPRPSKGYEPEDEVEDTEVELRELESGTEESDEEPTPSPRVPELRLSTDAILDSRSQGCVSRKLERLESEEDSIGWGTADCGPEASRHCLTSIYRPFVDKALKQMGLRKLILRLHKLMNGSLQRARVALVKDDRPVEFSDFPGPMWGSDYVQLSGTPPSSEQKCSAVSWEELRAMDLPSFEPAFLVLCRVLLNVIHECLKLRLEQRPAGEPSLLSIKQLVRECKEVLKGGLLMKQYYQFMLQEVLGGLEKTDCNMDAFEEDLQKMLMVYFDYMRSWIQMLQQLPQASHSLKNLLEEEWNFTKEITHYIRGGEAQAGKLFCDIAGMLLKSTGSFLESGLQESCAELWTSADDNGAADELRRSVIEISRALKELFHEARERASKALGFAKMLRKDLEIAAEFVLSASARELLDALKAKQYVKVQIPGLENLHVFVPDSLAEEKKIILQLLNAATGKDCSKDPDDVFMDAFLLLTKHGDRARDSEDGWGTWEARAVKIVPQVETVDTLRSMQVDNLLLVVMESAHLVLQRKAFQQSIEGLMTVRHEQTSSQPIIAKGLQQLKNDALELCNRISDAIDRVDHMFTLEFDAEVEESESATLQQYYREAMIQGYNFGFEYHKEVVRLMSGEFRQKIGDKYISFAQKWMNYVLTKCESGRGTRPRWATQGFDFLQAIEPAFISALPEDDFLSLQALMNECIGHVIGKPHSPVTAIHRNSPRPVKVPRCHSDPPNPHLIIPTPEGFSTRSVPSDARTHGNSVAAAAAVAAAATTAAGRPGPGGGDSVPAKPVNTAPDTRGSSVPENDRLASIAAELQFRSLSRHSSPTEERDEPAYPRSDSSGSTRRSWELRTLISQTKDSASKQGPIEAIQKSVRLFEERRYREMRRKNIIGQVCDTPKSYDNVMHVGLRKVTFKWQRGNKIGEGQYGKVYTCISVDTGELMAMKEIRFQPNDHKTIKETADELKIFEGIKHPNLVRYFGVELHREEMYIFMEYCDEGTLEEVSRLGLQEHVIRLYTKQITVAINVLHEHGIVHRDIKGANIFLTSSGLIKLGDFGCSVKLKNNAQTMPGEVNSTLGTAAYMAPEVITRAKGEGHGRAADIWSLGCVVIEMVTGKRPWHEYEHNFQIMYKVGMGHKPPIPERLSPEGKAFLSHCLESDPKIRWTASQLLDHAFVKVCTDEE
Procedure: as §1

B1: GST-Gadd45β: full-length murine Gadd45β directly fused to GST, purified from E. coli (protein)
chain: MTLEELVASDNAVQKMQAVTAAVEQLLVAAQRQDRLTVGVYEAAKLMNVDPDSVVLCLLAIDEEEEDDIALQIHFTLIQSFCCDNDIDIVRVSGMQRLAQLLGEPAETLGTTEARDLHCLLVTNCHTDSWKSQGLVEVASYCEESRGNNQWVPYISLEER
modifications: left off: a dimerising Fc or GST
notes: full-length murine Gadd45β directly fused to GST, purified from E. coli
association with FL-JNKK2 (JNKK2): strongly associated | association with JNKK1 (JNKK1): weakly | association with MEKK4 (MEKK4): less avidly than with JNKK2
